Consider 40 sequences from the supplement of paper PMC7877785.

± gives the uncertainty stated by the source.

The data set can be described thus: self-splicing fitness, log relative to wild type (ln ratio); higher = more splicing; Tetrahymena group I intron in knt gene, E. coli kanamycin selection, DiMSum; sequences stand for … in CUCUCU…GGAGGGAAAAGUUAUCAGGCAUGCACCUGGUAGCUAGUCUUUAAACCAAUAGAUUGCAUCGGUUUAAAAGGCAAGACCGUCAAAUUGCGGGAAAGGGGUCAACAGCCGUUCAGUACCAAGUCUCAGGGGAAACUUUGAGAUGGCCUUGCAAAGGGUAUGGUAAUAAGCUGACGGACAUGGUCCUAACCACGCAGCCAAGUCCUAAGUCAACAGAUCUUCUGUUGAUAUGGAUGCAGUUCACAGACUAAAUGUCGGUCGGGGAAGAUGUAUUCUUCUCAUAAGAUAUAGUCGGACCUCUCCUUAAUGGGAGCUAGCGGAUGAAGUGAUGCAACACUGGAGCCGCUGGGAACUAAUUUGUAUGCGAAAGUAUAUUGAUUAGUUUUGGAGUACUCGUGGUCG
The essentials: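 Pooled colonies went to amplicon sequencing on an Illumina HiSeq 2500 after six replicate transformations. The plates were LB agar with 100 μg/mL carbenicillin, 50 μM IPTG and 0.2% rhamnose, with or without 25 μg/mL kanamycin, incubated overnight at 37°C or 30°C. The E. coli BL21(DE3) library had all eight P1ex-region intron nucleotides randomised, the intron placed in the knt kanamycin-resistance gene on pET-22b(+). DiMSum fitness is the error-weighted combination of replicate fold changes, kanamycin against none, normalised to wild type.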

For CUCUAGCAAUAUUACGAGGC, the “self-splicing fitness (ln)” value (30 °C) is -3.18 ± 0.36. For CUCUAGCAAUAUUACGAGGU, the “self-splicing fitness (ln)” value runs as follows: (30 °C) -3.21 ± 0.26; (37 °C) -3.6 ± 0.29. On to CUCUAGCAAUAUUACGCCGC, for which the “self-splicing fitness (ln)” value (37 °C) is -3.15 ± 0.43. For CUCUAGCAAUAUUACGCGGC, the “self-splicing fitness (ln)” value was -2.81 ± 0.3 (30 °C) and -2.45 ± 0.3 (37 °C). Take CUCUAGCAAUAUUACGGACA: the “self-splicing fitness (ln)” value was -2.52 ± 0.47 (30 °C) and -2.66 ± 0.4 (37 °C). For CUCUAGCAAUAUUACGGACG, the “self-splicing fitness (ln)” value is -0.959 ± 0.14 (30 °C) and -0.0675 ± 0.16 (37 °C).

Take CUCUAGCAAUAUUACGGCAU: the “self-splicing fitness (ln)” value was -4.62 ± 0.39 (30 °C) and -3.62 ± 0.42 (37 °C).

For CUCUAGCAAUAUUACGGGAU, the “self-splicing fitness (ln)” value (30 °C) was -2.37 ± 0.11 and the “self-splicing fitness (ln)” value (37 °C) is -3.45 ± 0.16. On the same counts, the results for CUCUAGCAAUAUUACGGGGG are -3.07 ± 0.3 and -2.38 ± 0.26. Turning to CUCUAGCAAUAUUACGGGUA, the “self-splicing fitness (ln)” value is -2.21 ± 0.14 (30 °C) and -1.05 ± 0.12 (37 °C).

In the case of CUCUAGCAAUAUUACGGUUA, under “37 °C”, the “self-splicing fitness (ln)” value is -3.24 ± 0.29.

Consider CUCUAGCAAUAUUACGUAAU, for which the “self-splicing fitness (ln)” value was -3.59 ± 0.26 (30 °C) and -3.77 ± 0.46 (37 °C). For the sequence CUCUAGCAAUAUUACGUGGC, the “self-splicing fitness (ln)” value is -3.7 ± 0.22 (30 °C) and -2.82 ± 0.24 (37 °C). Regarding CUCUAGCAAUAUUACGUGUA, the “self-splicing fitness (ln)” value is -3.62 ± 0.21 (30 °C) and -4.02 ± 0.27 (37 °C).

Consider CUGAAGCAAUAUUACGACAA, for which the “self-splicing fitness (ln)” value is -0.913 ± 0.13 (30 °C) and 0.0189 ± 0.19 (37 °C). For the sequence CUGAAGCAAUAUUACGACAG, the “self-splicing fitness (ln)” value by setting is: (30 °C) -0.755 ± 0.063; (37 °C) 0.511 ± 0.11. With CUGAAGCAAUAUUACGAGAA, the “self-splicing fitness (ln)” value (30 °C) is -3.29 ± 0.3.

As to CUGAAGCAAUAUUACGCAAU, the “self-splicing fitness (ln)” value (30 °C) was -3.09 ± 0.24 and the “self-splicing fitness (ln)” value (37 °C) is -2.67 ± 0.36. CUGAAGCAAUAUUACGCAGA: the “self-splicing fitness (ln)” value runs as follows: (30 °C) -3.67 ± 0.19; (37 °C) -2.71 ± 0.21. Regarding CUGAAGCAAUAUUACGCCGC, the “self-splicing fitness (ln)” value (30 °C) is -3.17 ± 0.35.

As for CUGAAGCAAUAUUACGCGUC, the “self-splicing fitness (ln)” value is -3.62 ± 0.33 (30 °C) and -3.55 ± 0.35 (37 °C).

Take CUGAAGCAAUAUUACGGAUA: the “self-splicing fitness (ln)” value was -4.19 ± 0.22 (30 °C) and -1.19 ± 0.18 (37 °C). On the same counts, the results for CUGAAGCAAUAUUACGGCUA are -3.03 ± 0.25 and -1.22 ± 0.25. Turning to CUGAAGCAAUAUUACGGUCC, the “self-splicing fitness (ln)” value runs as follows: (30 °C) -3.78 ± 0.34; (37 °C) -2.38 ± 0.46. The matching figures for CUGAAGCAAUAUUACGGUCG: 0.651 ± 0.072 and -0.32 ± 0.082.

Regarding CUGAAGCAAUAUUACGGUUU, the “self-splicing fitness (ln)” value by setting is: (30 °C) -3.24 ± 0.22; (37 °C) -2.72 ± 0.18.

As for CUGAAGCAAUAUUACGUAGA, the “self-splicing fitness (ln)” value is -4.28 ± 0.34 (30 °C) and -1.75 ± 0.27 (37 °C). Consider CUGAAGCAAUAUUACGUAUG, for which the “self-splicing fitness (ln)” value runs as follows: (30 °C) -0.151 ± 0.056; (37 °C) -0.154 ± 0.068. For the sequence CUGAAGCAAUAUUACGUGCG, the “self-splicing fitness (ln)” value reads like this: (30 °C) 0.0994 ± 0.061; (37 °C) -0.325 ± 0.073. The matching figures for CUGAAGCAAUAUUACGUGGU: -3.3 ± 0.15 and -1.41 ± 0.18.

In the case of CUGAAGCAAUAUUACGUGUU, the “self-splicing fitness (ln)” value runs as follows: (30 °C) -3.7 ± 0.14; (37 °C) -2.13 ± 0.17. On the same counts, the results for CUGAAGCAAUAUUACGUUUG are -1.52 ± 0.061 and -1.23 ± 0.099. For CUGCAGCAAUAUUACGAAGC, the “self-splicing fitness (ln)” value by setting is: (30 °C) -2.78 ± 0.28; (37 °C) -2.6 ± 0.28. Take CUGCAGCAAUAUUACGACCG: the “self-splicing fitness (ln)” value (30 °C) came to 0.161 ± 0.088 and the “self-splicing fitness (ln)” value (37 °C) amounted to 0.198 ± 0.12.

Regarding CUGCAGCAAUAUUACGAGCC, where the note is “30 °C”, the “self-splicing fitness (ln)” value is -2.9 ± 0.31. On the same count and under the same terms, the value for CUGCAGCAAUAUUACGAUAC was -2.99 ± 0.34. Consider CUGCAGCAAUAUUACGAUAU, for which the “self-splicing fitness (ln)” value is -3.64 ± 0.28 (30 °C) and -2.41 ± 0.3 (37 °C). Take CUGCAGCAAUAUUACGAUGC: the “self-splicing fitness (ln)” value is -3.13 ± 0.24 (30 °C) and -1.92 ± 0.43 (37 °C). Take CUGCAGCAAUAUUACGCAGA: the “self-splicing fitness (ln)” value (30 °C) was -2.32 ± 0.31 and the “self-splicing fitness (ln)” value (37 °C) is -2.97 ± 0.38. As to CUGCAGCAAUAUUACGCUAC, the “self-splicing fitness (ln)” value is -4.2 ± 0.36 (30 °C) and -2.17 ± 0.16 (37 °C).
